The values that follow come from patent publication US20250249092A1 (TORAY INDUSTRIES, published 2025).

The labels stand for the following.
T1: CAPRIN-1 on the cell membrane surface of mouse cancer cells (mouse, UniProt Q60865 2-707)
T1 construct: whole, on cells; also called CAPRIN-1 protein
T1 sequence (looked up): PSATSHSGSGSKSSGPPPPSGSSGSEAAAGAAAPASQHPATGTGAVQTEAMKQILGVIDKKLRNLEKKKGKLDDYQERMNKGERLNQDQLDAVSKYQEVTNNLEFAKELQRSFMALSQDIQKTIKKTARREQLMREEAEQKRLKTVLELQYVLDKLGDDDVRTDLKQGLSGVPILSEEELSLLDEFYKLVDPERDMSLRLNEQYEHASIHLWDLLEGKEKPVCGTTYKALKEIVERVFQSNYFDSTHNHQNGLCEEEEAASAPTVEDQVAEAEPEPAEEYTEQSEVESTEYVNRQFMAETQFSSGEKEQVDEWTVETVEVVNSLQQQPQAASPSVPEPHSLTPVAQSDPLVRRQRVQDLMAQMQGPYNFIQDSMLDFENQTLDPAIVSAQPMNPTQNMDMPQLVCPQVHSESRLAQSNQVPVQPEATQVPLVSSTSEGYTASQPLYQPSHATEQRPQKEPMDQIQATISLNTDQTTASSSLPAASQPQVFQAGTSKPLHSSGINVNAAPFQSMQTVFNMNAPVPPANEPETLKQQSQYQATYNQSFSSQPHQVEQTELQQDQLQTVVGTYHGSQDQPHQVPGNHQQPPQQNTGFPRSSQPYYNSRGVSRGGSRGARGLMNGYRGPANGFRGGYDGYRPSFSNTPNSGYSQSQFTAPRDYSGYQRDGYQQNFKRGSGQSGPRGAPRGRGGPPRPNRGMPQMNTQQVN

T2: CAPRIN-1 on the cell membrane surface of human cancer cells (human, UniProt Q14444 2-709)
T2 construct: whole, on cells; also called CAPRIN-1 protein
T2 sequence (looked up): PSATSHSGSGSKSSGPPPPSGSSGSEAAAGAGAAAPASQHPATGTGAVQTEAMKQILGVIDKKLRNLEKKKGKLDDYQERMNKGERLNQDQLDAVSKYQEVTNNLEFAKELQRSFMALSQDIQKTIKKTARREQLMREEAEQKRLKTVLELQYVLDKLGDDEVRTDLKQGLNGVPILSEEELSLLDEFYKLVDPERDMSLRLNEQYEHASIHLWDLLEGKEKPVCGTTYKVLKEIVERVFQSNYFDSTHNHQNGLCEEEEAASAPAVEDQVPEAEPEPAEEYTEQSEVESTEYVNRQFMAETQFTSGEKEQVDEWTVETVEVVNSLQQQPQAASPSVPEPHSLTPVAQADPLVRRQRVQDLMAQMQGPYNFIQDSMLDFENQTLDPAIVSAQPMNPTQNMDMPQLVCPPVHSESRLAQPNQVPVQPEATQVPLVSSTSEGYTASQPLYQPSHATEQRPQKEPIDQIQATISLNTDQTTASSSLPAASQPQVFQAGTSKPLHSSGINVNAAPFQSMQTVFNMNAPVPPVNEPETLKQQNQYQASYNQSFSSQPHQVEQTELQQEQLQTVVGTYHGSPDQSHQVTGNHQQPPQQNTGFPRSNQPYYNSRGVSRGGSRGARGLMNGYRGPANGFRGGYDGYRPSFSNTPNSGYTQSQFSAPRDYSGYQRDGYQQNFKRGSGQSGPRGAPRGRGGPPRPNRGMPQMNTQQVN

B1: Conjugate 31 (antibody, V domains shown)
VH: AVTLDESGGGLQTPGGGLSLVCKASGFTFSSFDMGWVRQAPGKGLEFVAQINDAGSRTWYATAVKGRATISRDNGQTTVRLQLNNLRAEDTGTYYCTRGSGYVGAGAIDAWGHGTEVIVS
VL: AALTQPSSVSANPGETVKITCSGGSGYYGWYQQQKSPGSAPVTVIYQNDKRPSDIPSRFSGSGSGSTNTLTITGVQAEDEAVYFCGRYDSTDSGIFGAGTTLTVL
notes: mouse chimeric antibody #3 (mouse IgG constant regions) + resiquimod, MC-Val-Cit-PAB linker
B2: Conjugate 35 (antibody, V domains shown)
VH: AVTLDESGGGLQTPGGGLSLVCKASGFTFSSFDMGWVRQAPGKGLEFVAQINDAGSRTWYATAVKGRATISRDNGQTTVRLQLNNLRAEDTGTYYCTRGSGYVGAGAIDAWGHGTEVIVS
VL: AALTQPSSVSANPGETVKITCSGGSGYYGWYQQQKSPGSAPVTVIYQNDKRPSDIPSRFSGSGSGSTNTLTITGVQAEDEAVYFCGRYDSTDSGIFGAGTTLTVL
notes: mouse chimeric antibody #3 (mouse IgG constant regions) + resiquimod derivative, SATA and SMCC linkers
B3: Conjugate 29 (antibody, V domains shown)
VH: AVTLDESGGGLQMSRGGLSLVCKASGFDFSSYQMNWIRQAPGKGLEFVAAINKFGNSTGHGAAVKGRVTISRDNGQSTVRLQLNNLRAEDTAIYFCTKHAYGYCGSGTWCAAGEIDAWGHGTEVIVSS
VL: QAASTQPSSVSANPGETVEITCSGGGSYSYGWFQQKSPGSAPVTVIYYNNKRPSDIPSRFSGSKSGSTGTLTITGVQADDEAVYYCGSGDSTDTAVFGAGTTLTVLG
notes: mouse chimeric antibody #1 (mouse IgG constant regions) + resiquimod, MC-Val-Cit-PAB linker
B4: Conjugate 33 (antibody, V domains shown)
VH: AVTLDESGGGLQMSRGGLSLVCKASGFDFSSYQMNWIRQAPGKGLEFVAAINKFGNSTGHGAAVKGRVTISRDNGQSTVRLQLNNLRAEDTAIYFCTKHAYGYCGSGTWCAAGEIDAWGHGTEVIVSS
VL: QAASTQPSSVSANPGETVEITCSGGGSYSYGWFQQKSPGSAPVTVIYYNNKRPSDIPSRFSGSKSGSTGTLTITGVQADDEAVYYCGSGDSTDTAVFGAGTTLTVLG
notes: mouse chimeric antibody #1 (mouse IgG constant regions) + resiquimod derivative, SATA and SMCC linkers
B5: Conjugate 30 (antibody, V domains shown)
VH: EQSLVESGGGLVQPGGSLRLSCAASGFSLSSHSLGWVRQAPGKGLEWIGDIRSGGSAYYANWAKGRFTISRDNSKNTLYLQMNSLRAEDTAVYYCTRTNGPSDLTNRLDLWGQGTLVTVSS
VL: QVLTQSPSSLSASVGDRVTINCQASQSLYNNENLAWFQQKPGKVPKRLIYGASTLASGVSSRFSGSGSGTEFTLTISSLQCEDFAIYYCLGEFSCGSADCFAFGGGTKVEIK
notes: mouse chimeric antibody #2 (mouse IgG constant regions) + resiquimod, MC-Val-Cit-PAB linker
B6: Conjugate 34 (antibody, V domains shown)
VH: EQSLVESGGGLVQPGGSLRLSCAASGFSLSSHSLGWVRQAPGKGLEWIGDIRSGGSAYYANWAKGRFTISRDNSKNTLYLQMNSLRAEDTAVYYCTRTNGPSDLTNRLDLWGQGTLVTVSS
VL: QVLTQSPSSLSASVGDRVTINCQASQSLYNNENLAWFQQKPGKVPKRLIYGASTLASGVSSRFSGSGSGTEFTLTISSLQCEDFAIYYCLGEFSCGSADCFAFGGGTKVEIK
notes: mouse chimeric antibody #2 (mouse IgG constant regions) + resiquimod derivative, SATA and SMCC linkers
B7: Conjugate 8 (antibody, human IgG1, V domains shown)
VH: EQSLVESGGGLVQPGGSLRLSCAASGFSLSSHSLGWVRQAPGKGLEWIGDIRSGGSAYYANWAKGRFTISRDNSKNTLYLQMNSLRAEDTAVYYCTRTNGPSDLTNRLDLWGQGTLVTVSS
VL: QVLTQSPSSLSASVGDRVTINCQASQSLYNNENLAWFQQKPGKVPKRLIYGASTLASGVSSRFSGSGSGTEFTLTISSLQCEDFAIYYCLGEFSCGSADCFAFGGGTKVEIK
notes: humanized antibody #2 (human IgG1) + resiquimod, MC-Val-Cit-PAB linker
B8: Conjugate 26 (antibody, human IgG1, V domains shown)
VH: EQSLVESGGGLVQPGGSLRLSCAASGFSLSSHSLGWVRQAPGKGLEWIGDIRSGGSAYYANWAKGRFTISRDNSKNTLYLQMNSLRAEDTAVYYCTRTNGPSDLTNRLDLWGQGTLVTVSS
VL: QVLTQSPSSLSASVGDRVTINCQASQSLYNNENLAWFQQKPGKVPKRLIYGASTLASGVSSRFSGSGSGTEFTLTISSLQCEDFAIYYCLGEFSCGSADCFAFGGGTKVEIK
notes: humanized antibody #6 (V regions of #2; human IgG1 S239D/I332E) + resiquimod derivative, SATA and SMCC linkers
B9: Conjugate 22 (antibody, human IgG1, V domains shown)
VH: EQSLVESGGGLVQPGGSLRLSCAASGFSLSSHSLGWVRQAPGKGLEWIGDIRSGGSAYYANWAKGRFTISRDNSKNTLYLQMNSLRAEDTAVYYCTRTNGPSDLTNRLDLWGQGTLVTVSS
VL: QVLTQSPSSLSASVGDRVTINCQASQSLYNNENLAWFQQKPGKVPKRLIYGASTLASGVSSRFSGSGSGTEFTLTISSLQCEDFAIYYCLGEFSCGSADCFAFGGGTKVEIK
notes: humanized antibody #2 (human IgG1) + resiquimod derivative, SATA and SMCC linkers
B10: Conjugate 12 (antibody, human IgG1, V domains shown)
VH: EQSLVESGGGLVQPGGSLRLSCAASGFSLSSHSLGWVRQAPGKGLEWIGDIRSGGSAYYANWAKGRFTISRDNSKNTLYLQMNSLRAEDTAVYYCTRTNGPSDLTNRLDLWGQGTLVTVSS
VL: QVLTQSPSSLSASVGDRVTINCQASQSLYNNENLAWFQQKPGKVPKRLIYGASTLASGVSSRFSGSGSGTEFTLTISSLQCEDFAIYYCLGEFSCGSADCFAFGGGTKVEIK
notes: humanized antibody #6 (V regions of #2; human IgG1 S239D/I332E) + resiquimod, MC-Val-Cit-PAB linker

In one test the target is T1, CAPRIN-1 on the cell membrane surface …. In words: 4T1 cells.
For B1, the binding result was “binds”.

With B2, the binding result is reported as “binds”.

B3: the binding result is recorded as “binds”.

B4: the binding result is recorded as “binds”.

In the case of B5, the binding result is recorded as “binds”.

Take B6: the binding result is listed as “binds”.

The target of the next test is T2, CAPRIN-1 on the cell membrane surface …. In words: BT474 cells, as shown in Example 5.
For the molecule B7, the binding result is given as “binds”.

As for B8, the binding result was “binds”.

For the molecule B9, the binding result was “binds”.

For the molecule B10, the binding result is listed as “binds”.
